For eight molecules, Kd results are on record in patent US20040009534A1 (DYAX, published 2004).

Positions of bridges follow the written chain, without caps; N, C: chain ends. No end group written: not given here.

Test [1] has as its target T1, human plasma IgG3 (human, UniProt P01860-1 1-377).
T1 construct: Plasma-derived IgG isoform, bought
Kind of test: Oregon Green peptide, pH 4.0 - salt. As to the method:
(§1) Binding studies were performed using human plasma IgG isoforms: IgG1, IgG2, IgG3, and IgG4, obtained from Calbiochem.
(§2) Binding studies were carried out at either pH 4.0, 7.5, or 9.5, with or without salt in the following buffers: […]

The target in test [2] is T2, human plasma IgG4 (human, UniProt P01861-1 1-327 = IgG part).
T2 construct: Plasma-derived IgG isoform, bought
Kind of test: Oregon Green peptide, pH 7.5 - salt. The method, then:
as §1, §2

Test [3] deals with T1, human plasma IgG3. Kind of test: Oregon Green peptide, pH 9.5 + salt (500 mM NaCl). The method, then:
as §1, §2

Test [4] concerns the target T1, human plasma IgG3. Kind of test: Oregon Green peptide, pH 4.0 + salt (500 mM NaCl). As to the method:
as §1, §2

The target of test [5] is T1, human plasma IgG3. Kind of test: Oregon Green peptide, pH 7.5 + salt (500 mM NaCl). The method, then: as §1, §2
The target of test [6] is T2, human plasma IgG4. Kind of test: Oregon Green peptide, pH 4.0 - salt. As to the method:
as §1, §2

Test [7] has as its target T3, human plasma IgG1 (human, UniProt P01857-1 1-330 = IgG part).
T3 construct: Plasma-derived IgG isoform, bought
Kind of test: Oregon Green peptide, pH 4.0 - salt. The method, then: as §1, §2

Test [8] concerns the target T4, human plasma IgG2 (human, UniProt P01859-1 1-326 = IgG part).
T4 construct: Plasma-derived IgG isoform, bought
Kind of test: Oregon Green peptide, pH 9.5 - salt. The method, then:
as §1, §2

Test [9] has as its target T1, human plasma IgG3. Kind of test: Oregon Green peptide, pH 9.5 - salt. The method, then: as §1, §2
The target of test [10] is T1, human plasma IgG3. Kind of test: Oregon Green peptide, TBS pH 7.5. As to the method:
as §1, §2

For test [11], the target named is T3, human plasma IgG1. Kind of test: Oregon Green peptide, pH 7.5 - salt. As to the method: as §1, §2
Test [12] has as its target T5, rat serum albumin (Rat, UniProt P02770 25-608). Kind of test: labeled peptide, KD; 3 mM phosphate, pH 6.2, 0 M NaCl.
The target of test [13] is T6, goat serum albumin (Goat).
T6 construct: also called GSA
T6 sequence (P85295 whole entry, looked up): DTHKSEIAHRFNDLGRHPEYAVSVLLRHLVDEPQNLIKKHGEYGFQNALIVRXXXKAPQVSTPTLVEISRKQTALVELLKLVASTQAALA
The description is as above.

For test [14], the target named is T7, Rhesus serum albumin (Rhesus, UniProt Q28522 17-600). The test is described as above.
Test [15] concerns the target T8, human serum albumin (human, UniProt P02768 25-609).
T8 construct: also called HSA
The test is described as above.

Test [16] has as its target T5, rat serum albumin. Kind of test: labeled peptide, KD; PBS, pH 7.4, 0.14 M NaCl.
For test [17], the target named is T6, goat serum albumin. Kind of test: labeled peptide, KD; PBS, pH 7.4, 0.14 M NaCl.
In test [18] the target is T7, Rhesus serum albumin. Kind of test: labeled peptide, KD; PBS, pH 7.4, 0.14 M NaCl.
Test [19] deals with T8, human serum albumin. Kind of test: labeled peptide, KD; PBS, pH 7.4, 0.14 M NaCl.
In test [20] the target is T9, pig serum albumin (Pig, UniProt P08835 25-607). Kind of test: labeled peptide, KD; 3 mM phosphate, pH 6.2, 0 M NaCl; labeled peptide in solution; 3 mM phosphate, pH 6.2, 0 M NaCl.
The target of the next test is T10, bovine serum albumin (Bovine, UniProt P02769 25-607).
T10 construct: also called BSA
Described as above.

Test [21] has as its target T4, human plasma IgG2. Kind of test: Oregon Green peptide, pH 7.5 + salt (500 mM NaCl); pH 7.5 + salt. The method, then:
as §1, §2

Test [22] has as its target T4, human plasma IgG2. Kind of test: Oregon Green peptide, pH 4.0 - salt. As to the method: as §1, §2
The target of test [23] is T4, human plasma IgG2. Kind of test: Oregon Green peptide, pH 7.5 - salt. As to the method: as §1, §2
In test [24] the target is T4, human plasma IgG2. Kind of test: Oregon Green peptide, pH 4.0 + salt (500 mM NaCl). The method, then: as §1, §2
The target of test [25] is T3, human plasma IgG1. Kind of test: Oregon Green peptide, pH 4.0 + salt (500 mM NaCl). The method, then: as §1, §2
In a further test the target is rabbit serum albumin (Rabbit, UniProt P49065 25-608). Kind of test: labeled peptide, KD; 3 mM phosphate, pH 6.2, 0 M NaCl.
Test [26] has as its target T9, pig serum albumin. The test is described as above.

Broadly, the Kd is the equilibrium constant for the complex coming apart.

T4 sequence (P01859 other isoform, or with tags, fused parts or gaps): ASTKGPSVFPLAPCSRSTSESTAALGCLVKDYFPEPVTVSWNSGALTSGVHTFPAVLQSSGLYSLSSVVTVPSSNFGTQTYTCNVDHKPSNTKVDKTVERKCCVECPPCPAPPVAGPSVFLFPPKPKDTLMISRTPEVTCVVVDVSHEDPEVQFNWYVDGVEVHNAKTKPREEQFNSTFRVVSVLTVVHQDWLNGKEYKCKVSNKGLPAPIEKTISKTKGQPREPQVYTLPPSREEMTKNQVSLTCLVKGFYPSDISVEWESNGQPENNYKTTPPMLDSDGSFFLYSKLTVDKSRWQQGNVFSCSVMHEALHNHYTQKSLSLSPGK
T3 sequence (P01857 other isoform, or with tags, fused parts or gaps): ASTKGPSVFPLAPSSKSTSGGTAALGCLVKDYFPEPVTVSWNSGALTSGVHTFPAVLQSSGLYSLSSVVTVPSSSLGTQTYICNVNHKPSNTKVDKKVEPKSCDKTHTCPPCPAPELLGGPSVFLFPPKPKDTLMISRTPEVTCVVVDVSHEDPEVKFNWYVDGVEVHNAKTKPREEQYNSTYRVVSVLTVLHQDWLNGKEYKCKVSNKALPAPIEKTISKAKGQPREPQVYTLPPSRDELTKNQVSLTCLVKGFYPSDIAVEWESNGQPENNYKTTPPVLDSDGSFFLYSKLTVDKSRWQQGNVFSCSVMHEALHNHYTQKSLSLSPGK
T1 sequence (P01860 other isoform, or with tags, fused parts or gaps): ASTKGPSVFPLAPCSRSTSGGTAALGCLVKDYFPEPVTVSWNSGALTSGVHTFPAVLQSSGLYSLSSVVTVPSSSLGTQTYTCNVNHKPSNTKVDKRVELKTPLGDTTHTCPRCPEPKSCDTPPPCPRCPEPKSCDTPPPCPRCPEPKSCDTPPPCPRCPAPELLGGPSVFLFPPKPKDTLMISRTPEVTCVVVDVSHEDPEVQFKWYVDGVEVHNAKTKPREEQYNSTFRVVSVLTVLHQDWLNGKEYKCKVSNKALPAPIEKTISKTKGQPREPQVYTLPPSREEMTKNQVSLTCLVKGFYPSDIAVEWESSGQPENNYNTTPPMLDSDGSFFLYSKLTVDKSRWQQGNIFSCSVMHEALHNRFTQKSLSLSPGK
T2 sequence (P01861 other isoform, or with tags, fused parts or gaps): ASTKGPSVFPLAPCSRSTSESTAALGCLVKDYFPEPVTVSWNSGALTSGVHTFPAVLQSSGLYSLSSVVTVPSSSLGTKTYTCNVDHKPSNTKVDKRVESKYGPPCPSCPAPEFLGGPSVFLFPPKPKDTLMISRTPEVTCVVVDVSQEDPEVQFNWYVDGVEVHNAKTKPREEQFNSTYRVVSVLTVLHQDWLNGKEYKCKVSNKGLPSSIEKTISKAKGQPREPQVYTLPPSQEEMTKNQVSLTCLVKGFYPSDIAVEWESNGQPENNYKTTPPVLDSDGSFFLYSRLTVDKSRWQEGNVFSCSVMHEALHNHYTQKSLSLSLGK
T8 sequence (P02768 25-609): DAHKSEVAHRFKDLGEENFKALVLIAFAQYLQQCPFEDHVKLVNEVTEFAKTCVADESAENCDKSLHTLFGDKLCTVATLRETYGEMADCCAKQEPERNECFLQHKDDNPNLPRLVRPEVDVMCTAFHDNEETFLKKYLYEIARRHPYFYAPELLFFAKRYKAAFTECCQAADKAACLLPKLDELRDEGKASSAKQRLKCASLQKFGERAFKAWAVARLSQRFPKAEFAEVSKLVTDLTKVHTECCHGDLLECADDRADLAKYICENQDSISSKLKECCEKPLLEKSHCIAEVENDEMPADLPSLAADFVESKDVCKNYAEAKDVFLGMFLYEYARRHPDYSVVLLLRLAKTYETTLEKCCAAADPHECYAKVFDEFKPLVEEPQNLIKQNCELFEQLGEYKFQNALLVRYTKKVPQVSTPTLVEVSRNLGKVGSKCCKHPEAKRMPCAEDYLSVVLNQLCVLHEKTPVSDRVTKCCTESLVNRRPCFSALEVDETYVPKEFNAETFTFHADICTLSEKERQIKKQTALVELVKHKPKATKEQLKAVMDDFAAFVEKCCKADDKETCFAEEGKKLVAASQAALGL
T9 sequence (P08835 25-607 limits assumed): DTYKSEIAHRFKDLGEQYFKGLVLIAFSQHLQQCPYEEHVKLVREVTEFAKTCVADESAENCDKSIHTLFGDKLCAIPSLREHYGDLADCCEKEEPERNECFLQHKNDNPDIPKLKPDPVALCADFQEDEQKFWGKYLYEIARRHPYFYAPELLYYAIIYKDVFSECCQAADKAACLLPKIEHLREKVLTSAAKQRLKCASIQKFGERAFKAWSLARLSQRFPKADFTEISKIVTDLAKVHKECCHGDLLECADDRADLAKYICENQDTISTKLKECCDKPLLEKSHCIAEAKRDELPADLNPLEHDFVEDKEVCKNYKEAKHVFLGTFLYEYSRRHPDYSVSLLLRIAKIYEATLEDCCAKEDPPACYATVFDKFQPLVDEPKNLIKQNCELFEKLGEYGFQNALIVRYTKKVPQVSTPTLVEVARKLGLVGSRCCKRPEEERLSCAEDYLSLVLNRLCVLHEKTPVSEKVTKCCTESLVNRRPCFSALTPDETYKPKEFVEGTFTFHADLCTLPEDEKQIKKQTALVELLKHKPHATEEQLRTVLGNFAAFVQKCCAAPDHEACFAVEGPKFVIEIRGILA
T7 sequence (Q28522 17-600 limits assumed): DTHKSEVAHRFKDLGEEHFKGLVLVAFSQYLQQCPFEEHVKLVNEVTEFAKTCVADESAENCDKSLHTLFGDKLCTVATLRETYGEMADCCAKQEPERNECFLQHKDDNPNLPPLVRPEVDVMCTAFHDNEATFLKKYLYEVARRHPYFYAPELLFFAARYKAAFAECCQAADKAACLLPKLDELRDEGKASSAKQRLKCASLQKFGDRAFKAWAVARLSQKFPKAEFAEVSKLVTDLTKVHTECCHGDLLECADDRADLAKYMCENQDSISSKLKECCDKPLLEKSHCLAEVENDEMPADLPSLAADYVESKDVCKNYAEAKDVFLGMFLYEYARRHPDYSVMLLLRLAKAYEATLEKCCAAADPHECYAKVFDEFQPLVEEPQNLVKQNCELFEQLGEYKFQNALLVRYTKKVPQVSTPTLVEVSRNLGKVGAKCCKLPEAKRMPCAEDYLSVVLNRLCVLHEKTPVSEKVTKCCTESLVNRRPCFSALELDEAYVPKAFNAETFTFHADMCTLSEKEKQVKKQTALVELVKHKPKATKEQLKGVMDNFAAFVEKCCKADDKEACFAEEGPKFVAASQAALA
T5 sequence (P02770 25-608 limits assumed): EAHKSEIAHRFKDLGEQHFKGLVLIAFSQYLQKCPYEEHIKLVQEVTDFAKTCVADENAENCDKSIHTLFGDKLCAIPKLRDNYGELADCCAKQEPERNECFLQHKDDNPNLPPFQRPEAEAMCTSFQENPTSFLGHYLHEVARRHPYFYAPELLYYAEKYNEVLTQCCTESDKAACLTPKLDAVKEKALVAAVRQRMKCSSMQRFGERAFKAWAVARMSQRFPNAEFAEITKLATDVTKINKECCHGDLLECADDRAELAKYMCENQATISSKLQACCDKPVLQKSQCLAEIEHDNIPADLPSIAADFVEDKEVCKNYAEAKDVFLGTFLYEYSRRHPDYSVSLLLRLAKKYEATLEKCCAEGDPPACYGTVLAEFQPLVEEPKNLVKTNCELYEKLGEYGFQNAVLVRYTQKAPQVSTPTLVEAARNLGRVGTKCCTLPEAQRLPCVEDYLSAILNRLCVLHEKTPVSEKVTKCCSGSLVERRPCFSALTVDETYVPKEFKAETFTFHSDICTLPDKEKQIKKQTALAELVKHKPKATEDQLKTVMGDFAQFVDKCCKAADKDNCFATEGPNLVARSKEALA
Chain of rabbit serum albumin (P49065 25-608 limits assumed): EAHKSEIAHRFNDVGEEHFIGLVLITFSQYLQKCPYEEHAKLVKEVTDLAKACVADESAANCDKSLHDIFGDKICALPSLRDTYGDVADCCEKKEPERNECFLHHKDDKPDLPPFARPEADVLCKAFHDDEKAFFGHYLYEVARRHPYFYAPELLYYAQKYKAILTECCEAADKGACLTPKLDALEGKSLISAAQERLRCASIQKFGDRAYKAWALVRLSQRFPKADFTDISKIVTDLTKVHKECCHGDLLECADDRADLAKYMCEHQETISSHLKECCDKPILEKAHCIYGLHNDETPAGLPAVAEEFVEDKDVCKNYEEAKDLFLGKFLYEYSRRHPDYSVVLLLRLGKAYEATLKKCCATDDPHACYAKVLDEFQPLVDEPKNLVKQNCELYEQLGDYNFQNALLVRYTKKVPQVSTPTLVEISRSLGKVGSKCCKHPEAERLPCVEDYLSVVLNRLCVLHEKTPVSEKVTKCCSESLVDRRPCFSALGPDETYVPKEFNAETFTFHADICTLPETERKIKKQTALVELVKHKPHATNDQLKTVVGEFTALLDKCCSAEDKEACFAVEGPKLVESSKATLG
T10 sequence (P02769 25-607 limits assumed): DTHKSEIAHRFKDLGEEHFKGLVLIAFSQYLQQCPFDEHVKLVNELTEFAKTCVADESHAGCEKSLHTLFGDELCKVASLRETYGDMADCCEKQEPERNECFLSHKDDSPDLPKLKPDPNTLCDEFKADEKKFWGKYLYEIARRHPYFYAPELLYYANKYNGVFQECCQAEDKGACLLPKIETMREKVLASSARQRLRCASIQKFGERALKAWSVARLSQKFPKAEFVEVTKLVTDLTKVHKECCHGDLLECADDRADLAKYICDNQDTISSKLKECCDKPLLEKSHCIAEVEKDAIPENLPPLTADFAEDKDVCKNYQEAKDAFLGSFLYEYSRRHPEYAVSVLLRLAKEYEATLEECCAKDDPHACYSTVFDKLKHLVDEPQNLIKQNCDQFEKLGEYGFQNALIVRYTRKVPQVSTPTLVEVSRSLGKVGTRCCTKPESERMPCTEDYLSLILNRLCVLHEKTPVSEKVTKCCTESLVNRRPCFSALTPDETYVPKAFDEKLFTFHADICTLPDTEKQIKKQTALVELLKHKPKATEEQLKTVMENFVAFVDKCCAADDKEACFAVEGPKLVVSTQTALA

B1: DX395 (peptide)
peptide: AGKYWCNLWGVCPANPGPEGGGK
modifications: N-terminal acetyl (Ac-); C-terminal amide (-NH2); Oregon Green labeled
notes: Synthesised by BACHEM, Oregon Green labeled, HPLC purified
On to B1, for which the Kd is 1000 nM in the test with human plasma IgG3 [1] and over 10000 nM with human plasma IgG4 [2].

B2: DX392 (peptide)
peptide: AGSYWCKIWDVCPQSPGPEGGGK
modifications: N-terminal acetyl (Ac-); C-terminal amide (-NH2); Oregon Green labeled
notes: as for B1
B2: the Kd with human plasma IgG3 [1] was 320 nM; with human plasma IgG3 [3], over 10000 nM; in the test with human plasma IgG3 [4], 600 nM; with human plasma IgG3 [5] it was over 10000 nM.

B3: DX413 (peptide)
peptide: AGYWYCWFPDRPECPLYPGPEGGGK
modifications: N-terminal acetyl (Ac-); C-terminal amide (-NH2); Oregon Green labeled
notes: as for B1
Take B3: the Kd worked out at 840 nM with human plasma IgG3 [1] and 1100 nM in the test with human plasma IgG3 [4].

B4: DX398 (peptide)
peptide: AGAATCSTSYWYYQWFCTDSPGPEGGGK
modifications: N-terminal acetyl (Ac-); C-terminal amide (-NH2); Oregon Green labeled
notes: as for B1
Take B4: the Kd was 1600 nM with human plasma IgG4 [6]; 2400 nM with human plasma IgG1 [7]; 20 nM in the test with human plasma IgG3 [1]; over 10000 nM in the test with human plasma IgG2 [8]; over 10000 nM with human plasma IgG3 [9]; 300 nM with human plasma IgG3 [3]. Besides, the Kd was over 10000 nM with human plasma IgG3 [10]; 3500 nM with human plasma IgG4 [2]; 4600 nM with human plasma IgG1 [11]; 40 nM in the test with human plasma IgG3 [4]; 300 nM with human plasma IgG3 [5].

B5: DX-321 (peptide)
peptide: AEGTGDRNMCKFSWIRSPAFCARADPE
modifications: not fully specified (bridges); cysteine pairing not given here; also: label not named, exact tested form not given here, immobilised via C-terminal lysine to Sepharose
Consider B5, for which the Kd with rat serum albumin [12] came to 23000 nM; with goat serum albumin [13] it was 95000 nM; with Rhesus serum albumin [14], 38000 nM; with human serum albumin [15], 900 nM; with rat serum albumin [16], 117000 nM; with goat serum albumin [17] it was 83000 nM. The Kd with Rhesus serum albumin [18] worked out at 82000 nM; with human serum albumin [19] it was 84000 nM; in the test with pig serum albumin [20], 21000 nM; in the test with bovine serum albumin, 21000 nM.

B6: DX389 (peptide)
peptide: AGPHNCDDHYWYCKWFPGPEGGGK
modifications: N-terminal acetyl (Ac-); C-terminal amide (-NH2); Oregon Green labeled
notes: as for B1
B6: the Kd is 2500 nM with human plasma IgG3 [1], over 10000 nM with human plasma IgG2 [21], 1800 nM in the test with human plasma IgG3 [4] and over 10000 nM with human plasma IgG3 [5].

B7: DX404 (peptide)
peptide: AGTYWCTFWELPCDPAPGPEGGGK
modifications: N-terminal acetyl (Ac-); C-terminal amide (-NH2); Oregon Green labeled
notes: as for B1
Take B7: the Kd with human plasma IgG2 [22] came out at 1000 nM; in the test with human plasma IgG1 [7] it was 1500 nM; with human plasma IgG3 [1], 10 nM; with human plasma IgG2 [23] it was 8600 nM; in the test with human plasma IgG1 [11], 8800 nM; with human plasma IgG2 [24], 2000 nM. The Kd in the test with human plasma IgG1 [25] was determined as 2000 nM; with human plasma IgG3 [4], 200 nM.

B8: DX-236 (peptide)
peptide: AEGTGDFWFCDRIAWYPQHLCEFLDPEGGGK
modifications: disulfide 10-21 (inferred); not fully specified; also: labeled, label not named, coupled via C-terminal lysine to NHS-Sepharose
notes: Cyclic (disulfide) phage-display peptide
Regarding B8, the Kd in the test with rabbit serum albumin was 500 nM; with goat serum albumin [13], 1600 nM; in the test with pig serum albumin [26], 500 nM; with goat serum albumin [17] it was 23000 nM.
